Results from patent US20140023641A1 (MERCK SERONO S A, published 2014).

T1: macaca GM-CSF (rhesus, Macaca mulatta; cynomolgus, Macaca fascicularis, identical sequence) (Macaca mulatta / Macaca fascicularis, UniProt Q0MUT8 18-144 (Chlorocebus aethiops entry), limits assumed)
T1 construct: also called macaca ortholog; Q9GL44_MACMU
T1 chain: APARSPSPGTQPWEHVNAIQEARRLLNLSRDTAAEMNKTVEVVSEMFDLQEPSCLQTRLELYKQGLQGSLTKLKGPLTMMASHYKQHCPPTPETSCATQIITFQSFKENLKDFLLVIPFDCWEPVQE


How the values were obtained:
[1] = molecular target: T2, human GM-CSF I117 isoform (human, UniProt P04141 18-144); assay: KinExA, affinity in solution, average n = 2
T2 construct: also called hGM-CSF (I117); hGM-CSF-I117
Protocol: (§1) The 4K21 and reference antibodies were incubated at concentration below the expected Kd with serial dilutions of human GM-CSF I117 or T117, or macaca GM-CSF up to equilibrium. The remaining free antibody was measured in a Kinetic exclusion assay with the KinExA® instrument. Kd was calculated by fitting the curve of the signal obtained versus the GM-CSF concentrations. The average of two experiments using different IgG concentrations was calculated.

[2] = molecular target: T3, human GM-CSF T117 isoform (human, UniProt P04141 18-144); assay: KinExA, affinity in solution, average n = 2
T3 construct: also called hGM-CSF (T117); hGM-CSF-T117
Protocol: as §1

[3] = molecular target: T1, macaca GM-CSF (rhesus, Macaca mulatta; …); assay: KinExA, affinity in solution, average n = 2
Protocol: as §1

[4] = molecular target: T2, human GM-CSF I117 isoform; assay: cell-based or functional assay
Target sequence in this assay (P04141 18-144 limits assumed): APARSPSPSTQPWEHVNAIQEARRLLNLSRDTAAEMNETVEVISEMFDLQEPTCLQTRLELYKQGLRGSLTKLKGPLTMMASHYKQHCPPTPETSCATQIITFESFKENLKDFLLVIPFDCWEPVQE

[5] = molecular target: T3, human GM-CSF T117 isoform; assay: cell-based or functional assay
Target sequence in this assay (P04141 18-144 I117T limits assumed): as the sequence (P04141 18-144 limits assumed) above, with I100T counted along it

[6] = molecular target: T1, macaca GM-CSF (rhesus, Macaca mulatta; …); assay: cell-based or functional assay
[7] = molecular target: T3, human GM-CSF T117 isoform; assay: KinExA, affinity in solution; largest Kd ratio across the three GM-CSF targets, by Table 3 hGM-CSF T117 (174 pM) against hGM-CSF I117 (17 pM)
Protocol: as §1

[8] = molecular target: T2, human GM-CSF I117 isoform; assay: TF-1 proliferation assay and KinExA
Protocol: To determine potency and affinity of the antibody, Kd measurements and a proliferation bioassay of TF-1 cells were performed. TF-1 is an erythroleukemic cell line from blood, which proliferates in response to e.g. GM-CSF. Kd determination was carried out with the Kinetic Exclusion Assay (KinExA®; Sapidyne Instruments, Inc., Boise, Id., USA).

[9] = molecular target: T3, human GM-CSF T117 isoform; assay: cell-based or functional assay; remark: listed apart in the source
[10] = molecular target: T1, macaca GM-CSF (rhesus, Macaca mulatta; …); assay: cell-based or functional assay
[11] = molecular target: T2, human GM-CSF I117 isoform; assay: cell-based or functional assay; remark: listed apart in the source
[12] = molecular target: T3, human GM-CSF T117 isoform; assay: cell-based or functional assay; remark: listed apart in the source
[13] = molecular target: T2, human GM-CSF I117 isoform; assay: cell-based or functional assay; remark: listed apart in the source
[14] = molecular target: T3, human GM-CSF T117 isoform; assay: cell-based or functional assay; remark: listed apart in the source
[15] = molecular target: T1, macaca GM-CSF (rhesus, Macaca mulatta; …); assay: cell-based or functional assay
human GM-CSF A117 mutant = molecular target: T4, human GM-CSF A117 mutant (human, UniProt P04141 18-144); assay: competition ELISA: antibody binding to coated human GM-CSF, soluble human GM-CSF A117 as competitor (one condition, concentration not given)
T4 construct: also called hGM-CSF A117
Text: Detection of humanized parental anti-GM-CSF 4K21 binding to coated wild-type GM-CSF is competed away by soluble […]. Binding of all optimized 4K21 antibodies to the GM-CSF coated wells is not affected anymore by the presence of A117 protein in solution.

[16] = molecular target: T1, macaca GM-CSF (rhesus, Macaca mulatta; …); assay: KinExA, affinity in solution; largest Kd ratio across the three GM-CSF targets, by Table 3 macaca (11 pM) against hGM-CSF I117 (4 pM)
Protocol: as §1

| Binder | Kd [1] | Kd [2] | Kd [3] | Fold improvement of humanized parental 4K21 on I117 (TF-1 proliferation IC50) [4] | IC50 (pM), inhibition of GM-CSF induced TF-1 proliferation (32 pM GM-CSF, average n = 3) [4] | Fold human T117/I117 (TF-1 proliferation IC50) [5] | Fold improvement of humanized parental 4K21 on T117 (TF-1 proliferation IC50) [5] | IC50 (pM), inhibition of GM-CSF induced TF-1 proliferation (32 pM GM-CSF, average n = 3) [5] | Fold improvement of humanized parental 4K21 on macaca (TF-1 proliferation IC50) [6] | Fold macaca/human I117 (TF-1 proliferation IC50) [6] | IC50 (pM), inhibition of GM-CSF induced TF-1 proliferation (32 pM GM-CSF, average n = 3) [6] | fold preference for GM-CSF I117 versus T117 [8] | Emax (%), inhibition of CD11b upregulation on neutrophils [11] | IC50 (nM), inhibition of CD11b upregulation on neutrophils [11] | Emax (%), inhibition of CD11b upregulation on neutrophils [12] | IC50 (nM), inhibition of CD11b upregulation on neutrophils [12] | IC50 (pM), inhibition of GM-CSF induced IL-8 secretion in U937 cells (65 pM GM-CSF, n = 2) [13] | IC50 (pM), inhibition of GM-CSF induced IL-8 secretion in U937 cells (65 pM GM-CSF, n = 2) [14] | IC50 (pM), inhibition of GM-CSF induced IL-8 secretion in U937 cells (65 pM GM-CSF, n = 2) [15] | binding result (human GM-CSF A117 mutant) | other results |
| --- | --- | --- | --- | --- | --- | --- | --- | --- | --- | --- | --- | --- | --- | --- | --- | --- | --- | --- | --- | --- | --- |
| anti-GM-CSF 4K21 hIgG1 K antibody (MSB0010259), recombinant chimeric 4K21 (antibody, V domains shown, Murine variable domains fused to human constant IgG1 heavy chain and kappa light chain domains; also called parental chimeric 4K21) VH: EVQLVESGGGLVKSGGSLKLSCAASGFAFSAYDMSWVRQTPEKRLELVAYISSGGSSFYYPDTVKGRFTISRDNAKNTLYLQMSSLKSEDTAMYYCTRHLGFDYWGQGTTLTVSS VL: DVVMTQTPLSLPVSLGDQASISCRSSQSLVNSNGNTYLHWFLQKPGQSPKLLIYKVSNRFSGVPDRFSGSGSGTDFTLKISRVEAEDLGVYFCSQSTHVPPTFGGGTKLEIK | 0.017 nM | 0.174 nM | 0.104 nM | 0.9 fold | 130 pM | 10.8 fold | 1 fold | 1410 pM | 0.7 fold | 9.3 fold | 1220 pM | > 10 fold | – | – | – | – | – | – | – | – | fold affinity difference between the 2 hGM-CSF isoforms and the macaca ortholog [7]: ≤ 10 fold |
| murine hybridoma-derived 4K21 antibody (antibody, V domains shown, also called murine 4K21; murine monoclonal antibody 4K21) VH: EVQLVESGGGLVKSGGSLKLSCAASGFAFSAYDMSWVRQTPEKRLELVAYISSGGSSFYYPDTVKGRFTISRDNAKNTLYLQMSSLKSEDTAMYYCTRHLGFDYWGQGTTLTVSS VL: DVVMTQTPLSLPVSLGDQASISCRSSQSLVNSNGNTYLHWFLQKPGQSPKLLIYKVSNRFSGVPDRFSGSGSGTDFTLKISRVEAEDLGVYFCSQSTHVPPTFGGGTKLEIK | – | – | – | – | – | – | – | – | – | – | – | > 10 fold | – | – | – | – | – | – | – | – | – |
| humanized parental anti-GM-CSF 4K21 VH3-07.1AL+VK2-A3.2 hIgG1 K antibody (MSB0010439) (antibody, V domains shown, hIgG1 kappa; also called humanized parental 4K21 hVH hVL; humanized parental 4K21) VH: EVQLVESGGGLVQPGGSLRLSCAASGFAFSAYDMSWVRQAPGKRLELVAYISSGGSSFYYPDTVKGRFTISRDNAKNSLYLQMNSLRAEDTAVYYCTRHLGFDYWGQGTLVTVSS VL: DIVMTQSPLSLPVTPGEPASISCRSSQSLVNSNGNTYLHWYLQKPGQSPQLLIYKVSNRFSGVPDRFSGSGSGTDFTLKISRVEAEDVGVYYCSQSTHVPPTFGQGTKVEIK | 0.021 nM | 0.164 nM | 0.063 nM | 1 fold | 121 pM | 11.6 fold | 1 fold | 1400 pM | 1 fold | 6.6 fold | 793 pM | > 10 fold | 65% | 3.06 nM | 68% | 31.6 nM | 170 pM | 930 pM | 1120 pM | – | fold worse IC50 on T117 than on I117, CD11b upregulation in neutrophils [9]: 10 fold; fold less efficient neutralization than on human GM-CSF (TF-1 proliferation assay) [10]: < 10 fold |
| 4K21 hVH S55K-T62S hVL S27eY-N28I-H34S-N53R-H93F (MSB0010629) (antibody, V domains shown, Tested as IgG ('optimized 4K21 IgGs'); the humanized parent is hIgG1 kappa; also called optimized 4K21 antibody with S27eY; 4K21 (4K21 VH S55K-T62S VL S27eY-N28I-H34S-N53R-H93F)) VH: EVQLVESGGGLVQPGGSLRLSCAASGFAFSAYDMSWVRQAPGKRLELVAYISSGGKSFYYPDSVKGRFTISRDNAKNSLYLQMNSLRAEDTAVYYCTRHLGFDYWGQGTLVTVSS VL: DIVMTQSPLSLPVTPGEPASISCRSSQSLVNYIGNTYLSWYLQKPGQSPQLLIYKVSRRFSGVPDRFSGSGSGTDFTLKISRVEAEDVGVYYCSQSTFVPPTFGQGTKVEIK | – | – | – | 4.4 fold | 28 pM | 1.6 fold | 32 fold | 44 pM | 19 fold | 1.5 fold | 42 pM | – | – | – | – | – | 311 pM | 354 pM | 286 pM | binds | – |
| 4K21 hVH S55K-T62S hVL N28I-H34S-N53R-H93F (MSB0010628) (antibody, V domains shown, Tested as IgG ('optimized 4K21 IgGs'); the humanized parent is hIgG1 kappa; also called optimized 4K21 antibody; 4K21 (4K21 VH S55K-T62S VL N28I-H34S-N53R-H93F)) VH: EVQLVESGGGLVQPGGSLRLSCAASGFAFSAYDMSWVRQAPGKRLELVAYISSGGKSFYYPDSVKGRFTISRDNAKNSLYLQMNSLRAEDTAVYYCTRHLGFDYWGQGTLVTVSS VL: DIVMTQSPLSLPVTPGEPASISCRSSQSLVNSIGNTYLSWYLQKPGQSPQLLIYKVSRRFSGVPDRFSGSGSGTDFTLKISRVEAEDVGVYYCSQSTFVPPTFGQGTKVEIK | 0.004 nM | 0.007 nM | 0.011 nM | 6.6 fold | 18 pM | 1.2 fold | 63 fold | 22 pM | 11 fold | 3.9 fold | 72 pM | – | 84% | 1.65 nM | 97% | 1.98 nM | 257 pM | 181 pM | 501 pM | binds | fold affinity difference between the 2 hGM-CSF isoforms and the macaca ortholog [16]: < 3 fold |
